For series [1], the target named is T1, TCF-1 C200 (HMG domain) (Mus musculus, UniProt Q00417 Q00417:188-388). The experiment in a line: competition; excess unlabelled RNA did not compete with #10. The settings on record: tags: GST fusion, pGEX 4T-1.
In a further series the target is HuR (UniProt Q15717 Q15717:1-326). The experiment in a line: EMSA; specificity control. The settings on record: label: 32P (radiolabelled).
The next series addresses GST (UniProt P08515 P08515:1-218). As to the kind of experiment: EMSA; specificity control. The settings on record: chain copies: 2; label: 32P (radiolabelled).
For a further series, the target named is TCF-1 (full length) (Mus musculus, UniProt Q00417 Q00417:5-388). As to the kind of experiment: EMSA; specificity control. The settings on record: tags: GST fusion, pGEX 4T-1; label: 32P (radiolabelled).
Series [2] addresses GST-β-catenin, full length (UniProt P35222 P35222:1-781). As to the kind of experiment: EMSA; stated as binding affinity for full length β-catenin. The settings on record: tags: GST fusion, E. coli; label: 32P (radiolabelled). The procedure:
After 8 cycles of SELEX selection, the selected sequences were digested with EcoRI and BamHI, followed by cloning into pUC19 to prepare pUC19-aptamer. To test for RNA binding, the RNA was radiolabeled as described previously (Kim & Jeong, Biochem. Biophys. Res. Commun 320:1181-1186, 2004), incubated with GST-β catenin and assayed by GST pull-down (Kim & Jeong, Biochem. Biophys. Res. Commun 320:1181-1186, 2004) or RNA-EMSA (RNA-Electrophoretic Mobility-Shift Assay) (Kim & Jeong, Biochem. Biophys. Res. Commun 320:1181-1186, 2004).

The target in series [3] is T1, TCF-1 C200 (HMG domain). The experiment in a line: EMSA. The settings on record: tags: GST fusion, pGEX 4T-1; label: 32P 5'-end.
Series [4] concerns the target T1, TCF-1 C200 (HMG domain). As to the kind of experiment: competition; excess unlabelled RNA did not compete with #10; text partly contradictory. The settings on record: tags: GST fusion, pGEX 4T-1.

T1 sequence (Q00417 188-388, one chain of several): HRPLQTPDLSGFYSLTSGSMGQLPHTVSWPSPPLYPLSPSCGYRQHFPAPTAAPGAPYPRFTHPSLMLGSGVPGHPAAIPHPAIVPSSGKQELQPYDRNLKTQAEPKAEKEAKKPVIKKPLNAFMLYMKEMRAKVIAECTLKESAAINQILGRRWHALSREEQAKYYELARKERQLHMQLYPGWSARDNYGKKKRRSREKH
HuR, sequence (Q15717 whole entry, one chain of several): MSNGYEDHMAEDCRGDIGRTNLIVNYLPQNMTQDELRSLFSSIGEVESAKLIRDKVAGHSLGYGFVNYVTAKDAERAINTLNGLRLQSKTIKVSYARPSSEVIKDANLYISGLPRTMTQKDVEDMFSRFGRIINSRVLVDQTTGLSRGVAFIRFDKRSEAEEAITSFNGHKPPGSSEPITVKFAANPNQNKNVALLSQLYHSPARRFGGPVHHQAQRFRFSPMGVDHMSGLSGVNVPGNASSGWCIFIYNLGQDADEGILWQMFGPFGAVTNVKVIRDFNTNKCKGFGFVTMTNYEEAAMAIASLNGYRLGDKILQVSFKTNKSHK
TCF-1 (full length), sequence (Q00417 5-388, one chain of several): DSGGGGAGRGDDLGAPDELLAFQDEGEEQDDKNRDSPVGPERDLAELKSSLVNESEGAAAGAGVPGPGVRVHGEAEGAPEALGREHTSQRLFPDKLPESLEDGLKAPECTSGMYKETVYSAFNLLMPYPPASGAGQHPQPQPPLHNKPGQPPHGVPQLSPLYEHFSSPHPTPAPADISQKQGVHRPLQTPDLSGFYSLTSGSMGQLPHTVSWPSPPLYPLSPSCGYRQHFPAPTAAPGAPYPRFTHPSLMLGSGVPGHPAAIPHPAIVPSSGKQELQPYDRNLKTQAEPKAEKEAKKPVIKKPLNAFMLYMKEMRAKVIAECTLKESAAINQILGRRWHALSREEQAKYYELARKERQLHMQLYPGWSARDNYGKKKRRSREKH
GST, sequence (P08515 whole entry, the tested form may be a part, one chain of several): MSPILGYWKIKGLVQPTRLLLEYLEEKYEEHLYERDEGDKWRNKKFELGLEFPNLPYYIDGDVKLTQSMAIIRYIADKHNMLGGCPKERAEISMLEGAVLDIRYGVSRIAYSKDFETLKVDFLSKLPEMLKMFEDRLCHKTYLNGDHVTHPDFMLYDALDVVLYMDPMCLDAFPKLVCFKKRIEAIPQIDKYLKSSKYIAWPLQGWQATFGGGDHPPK
GST-β-catenin, full length, sequence (P35222 whole entry, the tested form may be a part, one chain of several): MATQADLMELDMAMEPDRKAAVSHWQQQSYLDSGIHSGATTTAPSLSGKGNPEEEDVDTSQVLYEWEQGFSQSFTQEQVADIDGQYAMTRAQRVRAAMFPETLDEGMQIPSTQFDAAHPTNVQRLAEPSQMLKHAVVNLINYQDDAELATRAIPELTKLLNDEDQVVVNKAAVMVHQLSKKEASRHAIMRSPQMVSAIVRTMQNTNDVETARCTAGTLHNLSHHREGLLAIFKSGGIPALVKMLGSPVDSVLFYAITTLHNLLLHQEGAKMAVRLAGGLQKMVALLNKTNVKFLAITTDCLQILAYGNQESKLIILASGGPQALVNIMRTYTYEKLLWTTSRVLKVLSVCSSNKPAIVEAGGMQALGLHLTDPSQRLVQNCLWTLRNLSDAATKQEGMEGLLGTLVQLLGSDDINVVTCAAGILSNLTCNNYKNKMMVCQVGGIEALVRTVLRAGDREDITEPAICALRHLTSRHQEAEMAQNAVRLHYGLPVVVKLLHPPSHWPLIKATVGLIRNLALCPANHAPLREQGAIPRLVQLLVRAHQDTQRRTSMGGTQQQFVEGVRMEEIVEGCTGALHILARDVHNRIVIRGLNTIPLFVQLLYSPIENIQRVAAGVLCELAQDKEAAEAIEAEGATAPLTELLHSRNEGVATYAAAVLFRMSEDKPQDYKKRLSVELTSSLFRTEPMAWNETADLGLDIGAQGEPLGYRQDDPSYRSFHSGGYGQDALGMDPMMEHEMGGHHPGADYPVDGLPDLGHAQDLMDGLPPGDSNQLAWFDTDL

B1: RNA #9 (ssRNA)
RNA: UGCUGACAAUUCUCGUGCCUCUCCAUGGUCUGCGGCUGAGAAGGUUCGCCAAGUUGUGGGCCGGGGUGC
With B1, the binding result with TCF-1 C200 (HMG domain) [1] is listed as “no binding”.

B2: β-catenin RNA aptamer (ssRNA)
RNA: GGACGCGUGGUACCAGGCCGAUCUAUGGACGCUAUAGGCACACCGGAUACUUUAACGAUUGGCUAAGCUUCCGCGGGGAUC
As to B2, the binding result with HuR, with GST and in the series with TCF-1 (full length) was “no binding” in each case. Binding in series [2] was put at a Kd of 5 nM.

B3: TRE (TCF responsive element) (dsDNA)
DNA 1: GGTAAGATCAAAGGG
DNA 2: CCCTTTGATCTTACC
Regarding B3, the binding result in the series with TCF-1 C200 (HMG domain) [3] is on record as “binds”.

B4: RNA #20 (ssRNA)
RNA: UUCCCGCGGUGGAAAGCGUUGGGUAGCGGCUCCGAUGGAGAGUGGUGCGCCUUGCCUGCUGGCCUUG
Turning to B4, in the series with TCF-1 C200 (HMG domain) [4], the binding result is on record as “no binding”.

(Values after US7999089, “RNA aptamers and the uses thereof” (Industry-Academic Cooperation Foundation, Dankook University).)
